Test results from article PMC3520743, “Bacillus cereus Fnr binds a [4Fe-4S] cluster and forms a ternary complex with ResD and PlcR” (BMC Microbiology, 2012).

Molecular target: the molecule itself
Experiment: SEC + other: SDS-PAGE under non-reducing conditions; analytical gel filtration chromatography and SDS-PAGE without DTT or beta-mercaptoethanol; apparent molecular mass ca. 60,000; dimer

B1: Bacillus cereus Fnr, recombinant tag-less apo-form (natural protein, Bacillus cereus F4430/73, UniProt A4GFD9 1-230, looked up)
chain: MANSMTLSQDLKELLASVEYKMQIKKGSFIFQEGMEATELYIIHSGKVQISKLSADGQELTLRICSAYDIIGELTLFTDNAKYLLNSKCLEDVEVGVIKREALEKELLQKPALVFEFMKWISEHLRRMQTKFRDLVLHGKKGALYSTLIRMTNSYGILKENGILIDLPLTNQELANFCATSRESVNRMLNELKKQGTISIHKGKITIHDLQFLKCEIACEDCSASVCSID
notes: also called apoFnr; tag-less Fnr; source: E. coli BL21 CodonPlus(DE3)-RIL (pET101fnr), aerobically grown, purified (DEAE-cellulose, hydroxyapatite, Superdex 200)
stoichiometry N: 2
